Measured values from patent publication US20190367620A1 (Merck KGaA, published 2019).
Substitutions are numbered along the chain they refer to.

What was measured:
Assay in all cases: SPR as in Example 1.8
[1] = biological target: T1, FGFR1 D2 point mutant L53A (human, UniProt P11362 22-254)
T1 chain: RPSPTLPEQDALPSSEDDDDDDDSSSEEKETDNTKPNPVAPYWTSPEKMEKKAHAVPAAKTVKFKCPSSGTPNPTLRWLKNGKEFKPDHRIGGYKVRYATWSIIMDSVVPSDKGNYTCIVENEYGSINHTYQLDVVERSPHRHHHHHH
How it was run: (§1)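 Anti-FGFR1 mAb captured via immobilised anti-human Fc to ~200 RU; 2-fold dilutions of His-tagged FGFR1 (wild-type or HEK-expressed point mutants, Ala→Gly for native Ala) injected at 25° C in HBS-EP+. kon/koff from 1:1 Langmuir fit; KD = koff/kon.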

[2] = biological target: T2, FGFR1 D2 point mutant E47A (human, UniProt P11362 22-254)
T2 chain: T1 chain with E47A, A53L
How it was run: as §1

[3] = biological target: T3, FGFR1 D2 point mutant K86A (human, UniProt P11362 22-254)
T3 chain: T1 chain with A53L, K86A
How it was run: as §1

[4] = biological target: T4, FGFR1 D2 point mutant K65A (human, UniProt P11362 22-254)
T4 chain: T1 chain with A53L, K65A
How it was run: as §1

[5] = biological target: T5, FGFR1 D2 point mutant K51A (human, UniProt P11362 22-254)
T5 chain: T1 chain with K51A, A53L
How it was run: as §1

[6] = biological target: T6, human FGFR1b-IIIb extracellular domain with a HIS tag (human)
T6 construct: also called huFGFR1b-IIIb; hFGFR1b-IIIb
T6 chain: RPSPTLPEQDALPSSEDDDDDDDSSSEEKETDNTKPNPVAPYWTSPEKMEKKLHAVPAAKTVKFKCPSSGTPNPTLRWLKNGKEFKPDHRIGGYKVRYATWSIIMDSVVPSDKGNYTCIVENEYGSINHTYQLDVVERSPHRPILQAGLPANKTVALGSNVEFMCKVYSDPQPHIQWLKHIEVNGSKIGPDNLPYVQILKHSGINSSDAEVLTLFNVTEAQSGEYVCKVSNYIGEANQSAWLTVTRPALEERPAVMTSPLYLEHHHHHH
How it was run: as §1

[7] = biological target: T7, FGFR1 D2 point mutant A59G (human, UniProt P11362 22-254)
T7 chain: T1 chain with A53L, A59G
How it was run: as §1

[8] = biological target: T8, FGFR1 D2 point mutant A58G (human, UniProt P11362 22-254)
T8 chain: T1 chain with A53L, A58G
How it was run: as §1

[9] = biological target: T9, FGFR1 D2 point mutant V56A (human, UniProt P11362 22-254)
T9 chain: T1 chain with A53L, V56A
How it was run: as §1

[10] = biological target: T10, FGFR1 D2 point mutant V96A (human, UniProt P11362 22-254)
T10 chain: T1 chain with A53L, V96A
How it was run: as §1

Kd [1]: 0.29 nM | Kd [2]: 0.26 nM | Kd [3]: 0.18 nM | Kd [4]: 0.18 nM | Kd [5]: 0.31 nM | Kd [6]: 0.47 nM | Kd [7]: 3.91 nM | Kd [8]: 2.2 nM | Kd [9]: 0.27 nM | Kd [10]: 0.19 nM
B1: mAb #A08 (antibody, V domains shown)
VH: EVQLQESGPGLVKPSGTLSLTCAVSGGSISSNNWWSWVRQPPGKGLEWIGEIYHSGSTSYNPSLKSRVTISVDKSKNQFSLKLNSVTAADTAVYYCARGTDWFDPWGQGTLVTVSS
VL: QAVLTQPPSVSVAPGQTARITCGGNNIGSESVHWYQQKPGQAPVLVVYDDSDRPSGIPERFSGSNSGNTATLTISRVEAGDEADYYCQVWDSTSDHRVFGGGTKLTVL
notes: Only variable domains are tied to the name mAb #A08 (hit); also called #A08 hit; mAb #08
